Laboratory results taken from patent US10711041B2, “Lyophilisate containing a cyclic peptide of formula X1-[sequence]-X2” (priority 2013, dated 2020).
Entries after “also recorded” stand apart in the source; their conditions may differ. Bridges are numbered along the chain shown (N, C = ends). Where no end group is shown, it is not given here.

Legend:
[1] = Chemical stability of condensed aerosol by reverse HPLC/MS; type: physicochemical; conditions: Mesh-Type nebulizer, aerosol condensed in cooling trap
Description: Since proteins and peptides occasionally may be rather unstable, it was investigated, whether the cyclic peptides of amino acid sequence SEQ ID NO:1 to SEQ ID NO:6 in dissolved preparation during conversion into an aerosol remain stable. For that the cyclic peptides were dissolved in water as described in example 4. After filling into the storage container of a nebulizer the aqueous solution of the cyclic peptides were converted into an aerosol. For that a “Mesh-Type” nebulizer was used. The biological activity of the collected aerosols was determined by means of the Patch Clamp method. Thereby macroscopic currents of A549 cells were deduced in the “whole cell” configuration of the “Patch-clamp” technique, as described under “Electrophysiological Investigations of the Amilorid-sensitive Sodium Ion Channel (ENaC)”.
The chemical stability of the condensed aerosols was determined by means of reverse HPLC/MS.

[2] = molecular target: T1, amilorid-sensitive Sodium Ion Channel (ENaC) (Homo sapiens, UniProt P37088); test: Patch-clamp whole cell, amilorid-sensitive sodium ion current in A549 cells; type: cell-based
T1 construct: Macroscopic Sodium Ion Currents were derived from human lung epithelian cells A549; endogenous in cells; host or cells: A549 human lung epithelial cells
T1 sequence (P37088 1-669): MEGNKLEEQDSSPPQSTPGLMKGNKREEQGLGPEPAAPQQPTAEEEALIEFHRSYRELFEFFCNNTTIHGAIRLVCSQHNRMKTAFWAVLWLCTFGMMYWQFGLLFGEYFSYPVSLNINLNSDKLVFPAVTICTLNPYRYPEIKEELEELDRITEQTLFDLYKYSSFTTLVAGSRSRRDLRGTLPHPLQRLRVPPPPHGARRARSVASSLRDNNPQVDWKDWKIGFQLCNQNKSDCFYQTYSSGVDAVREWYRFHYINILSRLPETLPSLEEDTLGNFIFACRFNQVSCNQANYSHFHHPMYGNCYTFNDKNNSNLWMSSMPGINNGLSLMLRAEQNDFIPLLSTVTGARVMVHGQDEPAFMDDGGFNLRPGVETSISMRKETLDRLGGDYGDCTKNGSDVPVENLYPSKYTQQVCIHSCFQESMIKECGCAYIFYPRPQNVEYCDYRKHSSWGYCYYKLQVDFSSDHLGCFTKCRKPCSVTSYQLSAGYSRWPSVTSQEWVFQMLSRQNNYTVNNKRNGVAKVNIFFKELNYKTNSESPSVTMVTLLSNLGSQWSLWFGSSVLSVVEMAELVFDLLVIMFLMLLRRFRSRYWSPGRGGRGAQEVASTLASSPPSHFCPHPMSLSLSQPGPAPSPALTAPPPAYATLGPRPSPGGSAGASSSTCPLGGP
T1 sequence (P51168 1-640 partner): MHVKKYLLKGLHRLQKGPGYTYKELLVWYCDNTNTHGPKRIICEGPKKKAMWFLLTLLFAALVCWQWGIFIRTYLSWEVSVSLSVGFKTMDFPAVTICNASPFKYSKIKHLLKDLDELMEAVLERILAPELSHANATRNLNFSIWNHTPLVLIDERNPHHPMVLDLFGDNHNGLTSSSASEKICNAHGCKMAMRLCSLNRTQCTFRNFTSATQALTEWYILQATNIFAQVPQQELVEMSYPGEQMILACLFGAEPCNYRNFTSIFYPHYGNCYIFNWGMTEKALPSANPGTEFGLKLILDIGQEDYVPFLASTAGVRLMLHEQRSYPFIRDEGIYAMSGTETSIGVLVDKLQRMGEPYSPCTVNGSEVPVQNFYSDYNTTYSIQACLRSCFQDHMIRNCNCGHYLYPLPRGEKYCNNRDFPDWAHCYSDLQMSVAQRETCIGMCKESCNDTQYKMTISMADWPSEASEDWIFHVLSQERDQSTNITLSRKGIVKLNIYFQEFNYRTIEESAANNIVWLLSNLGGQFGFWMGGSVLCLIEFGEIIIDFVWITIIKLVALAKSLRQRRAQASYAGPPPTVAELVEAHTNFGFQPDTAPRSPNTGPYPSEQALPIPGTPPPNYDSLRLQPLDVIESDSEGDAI
T1 sequence (P51170 1-649 partner): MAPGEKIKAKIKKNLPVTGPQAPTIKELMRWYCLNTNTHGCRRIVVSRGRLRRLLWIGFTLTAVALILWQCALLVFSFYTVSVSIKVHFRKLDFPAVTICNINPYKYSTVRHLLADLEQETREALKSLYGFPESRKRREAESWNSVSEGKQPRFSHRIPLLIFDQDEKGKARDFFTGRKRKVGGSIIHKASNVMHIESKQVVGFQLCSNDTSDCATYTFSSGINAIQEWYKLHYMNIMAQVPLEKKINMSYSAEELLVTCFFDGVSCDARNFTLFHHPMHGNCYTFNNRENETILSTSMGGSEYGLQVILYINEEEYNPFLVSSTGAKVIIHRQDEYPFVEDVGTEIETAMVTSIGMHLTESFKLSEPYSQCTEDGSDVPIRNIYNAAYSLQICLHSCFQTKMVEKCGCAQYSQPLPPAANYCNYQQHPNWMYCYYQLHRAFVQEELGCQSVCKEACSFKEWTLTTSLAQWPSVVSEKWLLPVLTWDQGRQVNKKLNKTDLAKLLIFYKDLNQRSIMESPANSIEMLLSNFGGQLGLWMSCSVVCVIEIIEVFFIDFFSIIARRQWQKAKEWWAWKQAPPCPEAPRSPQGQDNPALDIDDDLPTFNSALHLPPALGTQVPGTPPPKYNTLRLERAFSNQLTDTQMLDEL
Description: Macroscopic Sodium Ion Currents were derived from human lung epithelian cells A549 in the “whole cell” configuration by means of the “Patch-clamp” technique (Hamill et al, Pflugers Arch. 1981, 391(2):85-100, 1981). For the currents in the “whole cell” configuration the following bath- and electrode solutions were used:
Bath solution: 135 mM sodium methansulfonate, 10 mM NaCl, 2.7 mM KCl, 1.8 mM CaCl2, 2 mM MgCl2, 5.5 mM glucose, and 10 mM HEPES, pH 7.4.
Electrode solution: 120 mM potassium methansulfonate, 15 mM KCl, 6 mM NaCl, 1 mM Mg2ATP, 2 mM Na3ATP, 10 mM HEPES, and 0.5 mM EGTA (pH 7.2).
Cover glasses with thereon cultivated cells were transferred into a 1 ml containing trial bath, fixed onto the microscope table (Axiovert 100, 400-fold enlargement) and the cells were superfunded with the above described bath solution. Subsequent from an appropriate cell (sticking on the cover glass) the current was deduced. […] On receipt of a “Gigaohm-Seal” a defined membrane hold potential was created via a preamplifier (CV-4 Headstag, Axon Instruments) and amplifier (Axopatch 1D, Axon Instr.) and the current which thereby flows through the ion channels is measured.
That protocol was done before (control) and after addition of the cyclic proteins. The thus obtained currents were recorded and analyzed by means of the program PCLAMP 6.0. […]

For C[C@@H]1NC(=O)CNC(=O)[C@H](CCC(=O)O)NC(=O)[C@@H]2CCCN2C(=O)[C@H]([C@@H](C)O)NC(=O)[C@H](CCC(=O)O)NC(=O)[C@H](CCCNC(=N)N)NC(=O)[C@H](CCC(N)=O)NC(=O)CNC(=O)[C@@H](N)CSSC[C@@H](C(=O)O)NC(=O)[C@H](Cc2ccc(O)cc2)NC(=O)[C@H](Cc2c[nH]c3ccccc23)NC(=O)[C@@H]2CCCN2C(=O)[C@H](CCCCN)NC(=O)[C@H](C)NC(=O)[C@H](CCC(=O)O)NC1=O [SEQ ID NO: 1], the “chemical stability during transformation into an aerosol” value [1] was “keeps its biological, as well as its chemical stability”.
With “Cyclo(CGQREAPAGAAAKPWYC) (disulfide 1-17) [SEQ ID NO: 7, reference compound]” the “biological activity (in words)” value ([2]; amilorid-sensitive sodium current) was “biologically inactive; also recorded: not active” and the “EC50 (activity on cellular amilorid-sensitive sodium ion current)” value ([2]; whole cell patch clamp) was “no activity”.
